Values joined by “and” are separate entries in the source; they are usually repeats but may differ in a detail not shown here. Equal entries are not always repeated. Each block holds one binder with its values, some of them ahead of it.
Target: T1, CD20 on CD20 positive lymphoma cells (Daudi, Raji) (human) (UniProt P11836)
T1 sequence: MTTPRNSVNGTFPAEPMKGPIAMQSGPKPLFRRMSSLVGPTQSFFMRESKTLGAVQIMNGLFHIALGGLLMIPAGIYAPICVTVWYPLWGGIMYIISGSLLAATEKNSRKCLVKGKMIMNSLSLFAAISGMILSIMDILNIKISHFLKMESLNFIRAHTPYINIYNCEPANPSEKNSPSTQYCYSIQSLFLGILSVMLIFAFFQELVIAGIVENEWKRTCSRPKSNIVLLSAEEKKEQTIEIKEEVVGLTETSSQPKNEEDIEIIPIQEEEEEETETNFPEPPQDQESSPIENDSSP
Test: cell-based or functional assay

IC50 nM, membrane integrity 2 h, Daudi (CD20 positive): 110 nM
IC50 nM, membrane integrity 5 h, Daudi (CD20 positive): 112 nM
caspase 3/7 activation relative to staurosporine (100%), CD20 positive cells, 5 h: 18.3% and 29.3%
B1: anti-CD20 scFv-Phor18 conjugate (C-terminus) (scFv)
scFv: HHHHHHDIQLTQSPAILSASPGEKVTMTCRASSSVSYIHWFQQKPGSSPKPWIYATSNLASGVPVRFSGSGSGTSYSLTISRVEAEDAATYYCQQWTSNPPTFGGGTKLEIGSTSGGGSGGGSGGGGSSVQLQQPGAELVKPGASVKMSCKASGYTFTSYNMHWVKQTPGRGLEWIGAIYPGNGDTSYNQKFKGKATLTADKSSSTAYMQLSSLTSEDSAVYYCARSTYYGGDWYFDVWGQGTTVTVSSGSKFAKFAKKFAKFAKKFAK
IC50 nM, cell viability 24 h, Daudi (CD20 positive): 10 nM
IC50 nM, cell viability 46 h, Daudi (CD20 positive): 1.5 nM

B2: anti-CD20-Phor18 minibody conjugate Fv-CH3-CH3-Fv-Phor18 (protein)
chain: DIQLTQSPAILSASPGEKVTMTCRASSSVSYIHWFQQKPGSSPKPWIYATSNLASGVPVRFSGSGSGTSYSLTISRVEAEDAATYYCQQWTSNPPTFGGGTKLEIGSTSGGGSGGGSGGGGSSVQLQQPGAELVKPGASVKMSCKASGYTFTSYNMHWVKQTPGRGLEWIGAIYPGNGDTSYNQKFKGKATLTADKSSSTAYMQLSSLTSEDSAVYYCARSTYYGGDWYFDVWGQGTTVTVSSGQPREPQVYTLPPSRDELTKNQVSLTCLVKGFYPSDIAVEWESNGQPENNYKTTPPVLDSDGSFFLYSKLTVDKSRWQQGNVFSCSVMHEALHNHYTQKSLSLSPGKGSTSGGGSGGGSGGGGSSGQPREPQVYTLPPSRDELTKNQVSLTCLVKGFYPSDIAVEWESNGQPENNYKTTPPVLDSDGSFFLYSKLTVDKSRWQQGNVFSCSVMHEALHNHYTQKSLSLSPGKVQLQQPGAELVKPGASVKMSCKASGYTFTSYNMHWVKQTPGRGLEWIGAIYPGNGDTSYNQKFKGKATLTADKSSSTAYMQLSSLTSEDSAVYYCARSTYYGGDWYFDVWGQGTTVTVSSGSTSGGGSGGGSGGGGSSDIQLTQSPAILSASPGEKVTMTCRASSSVSYIHWFQQKPGSSPKPWIYATSNLASGVPVFSGSGSGTSYSLTISRVEAEDAATYYCQQWTSNPPTFGGGTKLEIGSKFAKFAKKFAKFAKKFAK
IC50 nM, cell viability 24 h, Daudi (CD20 positive): 10.5 nM
IC50 nM, cell viability 46 h, Daudi (CD20 positive): 3.6 nM
